{"source": "patent US9909188B2", "about": "“Methods and compositions involving lincRNA and leukemia” (THE REGENTS OF THE UNIVERSITY OF CALIFORNIA, priority 2013, dated 2018)", "key": {"BALIR-2 [1]": {"test_system": "BALIR-2", "assay": "Effect of prednisolone on BALIR-2 expression in human B-ALL cell lines (RT-qPCR)", "format": "cell-based", "experimental": "(§1) To measure proliferation, cells were cultured for 3-5 days before plating. Reagents were added according to the manufacturer's instructions (Promega CellTiter 96 AQueous Non-Radioactive Cell Proliferation Assay kit) and cells were incubated at 37°, 5% CO2 for 4 hours before absorbance was measured at 490 nm. To measure apoptosis, cells were plated and treated with 100 ng/mL doxorubicin or 250 μg/mL prednisolone in DMSO and incubated at 37° C. and 5% CO2. An untreated group and DMSO-treated group were included as controls. Cells were harvested after 24 hours and lysed with buffer supplied by Biovision. Protein concentrations were normalized after measurement by Bradford assay. Reagents were added according to the manufacturer's instructions (Biovision Caspase-3 Colorimetric Assay kit) and absorbance was measured at 405 nm. To observe the effects of prednisolone on lincRNA expression, untransduced cell lines were plated and treated with either 250 μg/mL prednisolone in DMSO or DMSO alone as a control. Cells were incubated at 37° C. and 5% CO2 for 24 hrs. Cells were collected and RNA was extracted using Trizol reagent (Invitrogen).\n(§2) RNA collected from samples was reverse transcribed using qScript reagent (Quanta Biosciences). Real Time quantitative PCR was performed with the StepOnePlus Real-Time PCR System (Applied Biosystems) using PerfeCTa SYBR Green FastMix reagent (Quanta Biosciences)."}, "RS411 cell line [2]": {"test_system": "RS411 cell line", "assay": "Apoptosis, caspase-3 activity, RS411", "format": "cell-based, human", "details": "for apoptosis measured by caspase-3 activity: RS411 stably transduced", "experimental": "as §1, with “To measure apoptosis, cells were plated and treated with 100 ng/mL doxorubicin or 250 μg/mL prednisolone in DMSO and incubated at 37° C. and 5% CO2.” left out"}, "[3]": {"test_system": "glucocorticoid receptor signaling pathway", "assay": "Expression of glucocorticoid response genes in RS4;11 cells (microarray, RT-qPCR)", "format": "cell-based, human", "experimental": "as §2\nSeveral of these clusters consist of genes involved in the glucocorticoid receptor signaling pathway, confirmed by functional annotation results (2-4 fold increases in FOS, HSPA6, SGK1, IL8, JUN, SERPINE1, CDKN1A and ICAM1 in siRNA group, both with and without prednisone treatment; FIGS. 13B and 13C). We confirmed knockdown of BALIR-2 and upregulation of FOS, JUN, SGK1 and SERPINE1 (FIG. 13D-F and FIG. 18E-F) by RT-qPCR. […] We also observed upregulation of the pro-apoptotic protein BIM in both knockdown and prednisolone-treated cells, which is a downstream target of JUN and an important mediator of glucocorticoid-induced apoptosis of lymphocytic cells (Heidari, et al, 2012) (FIGS. 13G and 13K)."}, "Balir-2 [4]": {"test_system": "Balir-2", "assay": "Balir-2 expression in 70Z/3 mouse cell line (RT-qPCR, normalized to L32)", "format": "cell-based", "details": "70Z/3 cells, 6 hrs", "experimental": "as §2\n(§3) RACE was performed and two products were identified at this locus (FIG. 16E). We generated miRNA-formatted siRNAs (Rao, et al., 2010) against the mapped murine transcript and confirmed decreased expression in the murine pre-B cell line 70Z/3 (FIG. 14B). […] Similar to what we observed in human cell lines, Balir-2 knockdown led to an upregulation of Jun and Fos in all three of the cell lines with upregulation of Bim in two out of three cell lines (FIG. 14D-F). We further confirmed the upregulation of these proteins by western blot analysis (FIG. 14G). […] We also examined the effects of BALIR-2 expression in a second human B-ALL cell line, Reh (FIG. 18K-R), utilizing a novel method to target the transcript. Based on the method of Ulitsky et al, we generated a siRNA-like sequence within our miRNA formatted vector, targeting the splice junction of the BALIR-2 transcript (Ulitsky, et al., 2011)."}, "[5]": {"test_system": "glucocorticoid response genes Fos, Jun and Bim", "assay": "Expression of glucocorticoid response genes Fos, Jun and Bim in 70Z/3 cells (RT-qPCR, Western blot)", "format": "cell-based, mouse", "experimental": "as §2, §3"}, "70Z/3 cells": {"test_system": "70Z/3 cells", "assay": "Apoptosis in 70Z/3 cells (caspase-3 activity)", "format": "cell-based, mouse"}, "BALIR-2 [6]": {"test_system": "BALIR-2", "assay": "siRNA-mediated knockdown of BALIR-2 in human B-ALL cell lines (RT-qPCR, normalized to Actin)", "format": "cell-based", "experimental": "We designed two complementary “linker” strands containing restriction sites for BamHI (5′ intact), XhoI, XbaI, NheI, ApaI and BamHI (3′ mutated) as follows: 5′-[…]-3′ (forward) (SEQ ID NO. 11), 5′-[…]-3′ (reverse) (SEQ ID NO. 12). The oligonucleotides were ordered through Invitrogen and modified with 5′-phosphate groups. The complementary strands were annealed by heating to 100° C. and slowly cooling in a water bath. The pHAGE2-CMV-ZsGreen-W vector (previously described in (O'Connell, 2010)) was digested with BamHI (Fermentas) and the linker was ligated in using T4 DNA ligase (Fermentas). Colonies were sequenced (Laragen) to determine the correct orientation and verify the sequence of the insert and mutation of the 3′ BamHI site. miRNA-formatted siRNAs were cloned into BamHI and ApaI or XhoI in the P2CZL vector, using the strategy that we have previously described to generate knockdown vectors against protein coding genes (O'Connell, 2009; Rao, 2010).\nAll lentiviruses were produced by transfecting 293T adherent cells with knock-down vectors as listed in Table 1, using BioT transfection agent (Bioland Scientific). 2.5×10^5 293T cells were co-transfected in trans using an advanced generation lentiviral system in 6 well plates for 48 hours as described previously (O'Connell, 2010). At 48 hours, the viral supernatant was collected, filtered and used for spin infection of B-ALL cell lines. 5.0×10^5 cells were spin-infected at 30° C. for 90 minutes in the presence polybrene (4 μg/mL). Transduced cells were sorted for high ZsGreen expression as described above.\nas §2"}, "RS411 cell line [7]": {"test_system": "RS411 cell line", "assay": "Cell proliferation, MTS assay, RS411", "format": "cell-based, human", "details": "RS411 stably transduced with siRNA", "experimental": "as §1"}, "[8]": {"details": "RS411 cell line, stably transduced"}}}
{"molecule": "C[C@]12C=CC(=O)C=C1CC[C@@H]1[C@@H]2[C@@H](O)C[C@@]2(C)[C@H]1CC[C@]2(O)C(=O)CO", "note": "[prednisolone]", "values": [{"measurement": "BALIR-2 expression after prednisolone treatment", "setting": "BALIR-2 [1]; RS4;11 cells", "result": "repressed"}, {"measurement": "decrease in expression of BALIR-2 following treatment", "setting": "BALIR-2 [1]; RS411 and NALM6 cell lines treated with prednisolone", "result": "30-50%"}, {"measurement": "apoptosis after prednisolone treatment", "setting": "RS411 cell line [2]; RS4;11 cells", "result": "induction of apoptosis"}, {"measurement": "expression of FOS and JUN after prednisolone treatment", "setting": "[3]; RS4;11 cells", "result": "increased expression"}, {"measurement": "expression of pro-apoptotic protein BIM", "setting": "[3]; RS4;11 cells", "result": "upregulation"}, {"measurement": "Balir-2 expression upon prednisolone treatment", "setting": "Balir-2 [4]", "result": "decreased"}, {"measurement": "expression of Jun, Fos and Bim after prednisolone treatment", "setting": "[5]", "result": "upregulation"}, {"measurement": "apoptosis after prednisolone treatment", "setting": "70Z/3 cells", "result": "increased apoptosis"}]}
{"molecule": "siRNA3: miR-155 formatted siRNA oligo against BALIR-2; SEQ ID NO:31/41 (nucleic acid, expressed or natural sequence) chain 1: GTAGGCTGTATGCTGTAAGGTAAGTGGCAGGCATTTGTTTTGGCCACTGACTGACAAATGCCTCACTTACCTTATGTATGATGCCTG chain 2: TAAGGTAAGTGGCAGGCATTT", "values": [{"measurement": "knockdown of BALIR-2", "setting": "BALIR-2 [6]; [8]", "result": "do not knock down"}]}
{"molecule": "siRNA2: miR-155 formatted siRNA oligo against BALIR-2; SEQ ID NO:30, targeting sequence SEQ ID NO:40 (nucleic acid, expressed or natural sequence) GAAGGCTGTATGCTGTTTACTGAAATCTCCTAGGTGGTTTTGGCCACTGACTGACCACCTAGGATTTCAGTAAACAGGACACAAGGCCTG", "values": [{"measurement": "knockdown of BALIR-2", "setting": "BALIR-2 [6]; NALM6 cell line", "result": "do not knock down"}, {"measurement": "knockdown of BALIR-2", "setting": "BALIR-2 [6]; [8]", "result": "greatest degree of knockdown"}, {"measurement": "apoptosis measured by caspase-3 activity", "setting": "RS411 cell line [2]; DMSO", "result": "Increased apoptosis"}, {"measurement": "apoptosis measured by caspase-3 activity", "setting": "RS411 cell line [2]; no treatment", "result": "Increased apoptosis"}, {"measurement": "increases in FOS, HSPA6, SGK1, IL8, JUN, SERPINE1, CDKN1A and ICAM1 in siRNA group", "setting": "[3]; RS4;11, microarray, both with and without prednisone treatment", "result": "2-4 fold"}, {"measurement": "expression of FOS, JUN, SGK1 and SERPINE1 by RT-qPCR after knockdown", "setting": "[3]; RS4;11 cells", "result": "upregulation"}, {"measurement": "expression of pro-apoptotic protein BIM", "setting": "[3]; RS4;11 cells", "result": "upregulation"}]}
{"molecule": "siRNA4: miR-155 formatted siRNA oligo against BALIR-2; SEQ ID NO:32/42 (nucleic acid, expressed or natural sequence) chain 1: GTAGGCTGTATGCTGTTTCACGGTGTGGCAGCTTTCGTTTTGCCTCCAACTGAGAAAGCTGACACCGTGAAATGTATGATGCCTG chain 2: TTTCACGGTGTGGCAGCTTTC", "values": [{"measurement": "knockdown of BALIR-2", "setting": "BALIR-2 [6]; [8]", "result": "do not knock down"}]}
{"molecule": "human-miR155-formatted siRNA2: human-miR155-formatted siRNA2 against BALIR-2; SEQ ID NO:34/44, printed as siRNA1-human155f (nucleic acid, expressed or natural sequence) chain 1: GTAGGCTGTATGCTGTTTACTGAAATCTCCTAGGTGGTTTTGGCCACTGACTGACCACCTAGGATTTCAGTAAATGTATGATGCCTG chain 2: TTTACTGAAATCTCCTAGGTG", "values": [{"measurement": "knockdown of BALIR-2", "setting": "BALIR-2 [6]; [8]", "result": "do not knock down"}]}
{"molecule": "siRNA1: miR-155 formatted siRNA oligo against BALIR-2; SEQ ID NO:29, targeting sequence SEQ ID NO:39 (nucleic acid, expressed or natural sequence) GAAGGCTGTATGCTGAGATTAGGTTGGCATGATTCTGTTTTGGCCACTGACTGACAGAATCATCAACCTAATCTCAGGACACAAGGCCTG", "values": [{"measurement": "knockdown of BALIR-2", "setting": "BALIR-2 [6]; NALM6 cell line", "result": "do not knock down"}, {"measurement": "cell proliferation (MTS assay)", "setting": "RS411 cell line [7]", "result": "reduced"}]}
{"molecule": "human-miR155-formatted siRNA1: human-miR155-formatted siRNA1 against BALIR-2; SEQ ID NO:33/43 (nucleic acid, expressed or natural sequence) chain 1: GTAGGCTGTATGCTGAGATTAGGTTGGCATGATTCTGTTTTGGCCACTGACTGACAGAATCATCAACCTAATCTTGTATGATGCCTG chain 2: AGATTAGGTTGGCATGATTCT", "values": [{"measurement": "knockdown of BALIR-2", "setting": "BALIR-2 [6]; [8]", "result": "do not knock down"}]}
